Where a chain is given by its changes, count along the chain named.
B1: anti-VISTA antibody 2B7 (IgG form) (antibody, V domains shown)
VH: QVQLVQSGGGLVKPGGSLRLSCAASGFTFSGSAMHWVRQASGKGLEWVGRIRSKANSYATAYAASVKGRFTISRDDSKNTAYLQMNSLKTEDTAVYYCSRVNSGYYGPDYWGKGTLVTVSS
VL: not shown
B2: 3C5 monoclonal scFv phage (scFv, V domains shown)
VH: QVQLVQSGAEVKKPGASVKLSCKASGYTFSSYWMHWVRQAPGQRLEWMGEINPGNGHTNYNEKFKSRVTITVDKSASTAYMELSSLRSEDTAVYYCAKDIAYYDFWSGDAFDLWGQGTMVTVSS
VL: SYELTQPLSVSVSPGQTASITCSGDKLGNKYASWYQQKPGQSPVLVIYQDNKRPSGIPERFSGSNSGNTATLTISGTQATDEADYYCQTWDRSTGVFGTGTKVTVLG
B3: 1A12 monoclonal scFv phage (scFv, V domains shown)
VH: QMQLVESGGGLVEPGRSLRLSCTTSGFSFHDYTMYWVRQVPGKGLEWVSLISWDGTITFYADPVRGRFTISRDNSKNSLYLQMNSLRAEDTAVYYCAKEDRYDYYSGAFDIWGQGTVVTVSS
VL: QSALTQPRSVSGSPGQSVTISCTGTSSDVGGYDYVSWYQQHPGKAPKLILNDVNKRPSGVPDRFSGSKSGNTASLTISGLQPDDEADYYCSSFAGSNTLRVFGGGTKLTVLG
B4: anti-VISTA antibody 2C12 (IgG form) (antibody, V domains shown)
VH: QVQLVESGAEVKKPGASVKVSCKASGYIFTDYYMHWVRQAPGQGLEWMGVINPYDGRTSFAQKFQGRLTVTRDTSTSTAYMDLSGLRSEDTAVYYCAKQMGIWDYDAFDIWGQGTMVTVSS
VL: QFVLTQPSSVSGAPGQRVIISCTGSSSNIGAGYDVHWYQQLPGTAPKVLIYGNSDRPSGVPDRFSASKSATSASLAITGLQAEDEADYYCVAWDDSLKAYVFGTGTKVTVLG
notes: also called #2C12(H); #2C12(M)
B5: anti-VISTA antibody 1B8 (IgG form) (antibody, V domains shown)
VH: QMQLVQSGAEVKKPGSSVKVSCKASGGSSSNYAISWVRQAPGQGLEWMGGIIPIFGTTSYAQKFQGRVTITADGSMSTAYMELSSLRSEDTAVYYCAKGAIEPWPFYFDNWGQGTLVTVSS
VL: QLVLTQPRSVSGSPGQSVTISCTGTNSDVGAYNYLSWYQQLPGRAPKVIIYDVNKRPSGVPDRFSGSRSGKTASLTISGLQAEDEADYYCAAWDDSLNGLVFGGGTKLTVLG
notes: also called Anti VISTA 3.0(1B8); anti-VISTA mAb 1B8
B6: PMC-309.3.4SA (antibody, V domains shown)
VH: B5 VH with M2V, G74K, M76T
VL: QSALTQPRSVSGSPGQSVTISCTGTNSDVGAYNYLSWYQQLPGRAPKVIIYDVNKRPSGVPDRFSGSRSGKTASLTISGLQAEDEADYYCAAWDDNLYGLVFGGGTKLTVL
notes: light chain SA; also called PMC-309.3.45A
B7: 1B8 monoclonal scFv phage (scFv, V domains shown)
VH: B5 VH
VL: B5 VL
notes: also called IB8; Anti VISTA.3.0 (1B8)
B8: Anti VISTA_V3_2 (scFv phage clone) (scFv, V domains shown)
VH: B5 VH
VL: B5 VL with G99D
notes: Optimised 1B8 variant that retains the 1B8 heavy-chain variable region, measured as scFv
B9: Anti VISTA_V3_4 (scFv phage clone) (scFv, V domains shown)
VH: B5 VH
VL: B5 VL with S96N, L97S, N98D, G99F, L100H
notes: as for B8
B10: PMC-309.3.4w (antibody, V domains shown)
VH: B5 VH with M2V, G74K, M76T
VL: B5 VL with S96N, N98Y
notes: Heavy chain G-H (framework substituted), wt light chain
B11: Anti VISTA_V3_1 (IgG form) (antibody, V domains shown)
VH: B5 VH
VL: B5 VL with N98Y
B12: Anti VISTA_B5 (scFv phage clone) (scFv, V domains shown)
VH: B5 VH
VL: B5 VL with S96D
notes: Optimised 1B8 light-chain CDR3 variant, measured as scFv
B13: Anti VISTA_H2 (scFv phage clone) (scFv, V domains shown)
VH: B5 VH
VL: B5 VL with S96N
notes: as for B8
B14: Anti VISTA_V3_3 (scFv phage clone) (scFv, V domains shown)
VH: B5 VH
VL: B5 VL with G99V
notes: as for B8
B15: PMC-309.3.3 (antibody, V domains shown)
VH: B5 VH
VL: B5 VL with S96N, N98Y
B16: Anti VISTA_V3_1 (scFv phage clone) (scFv, V domains shown)
VH: B5 VH
VL: B5 VL with N98Y
notes: as for B8
B17: Anti VISTA_G1 (scFv phage clone) (scFv, V domains shown)
VH: B5 VH
VL: B5 VL with N98I, L100H
notes: as for B8
B18: Anti VISTA_V3_2 (IgG form) (antibody, V domains shown)
VH: B5 VH
VL: B5 VL with G99D

Key:
[1] = molecular target: T1, hVISTA-Fc (R&D systems. Cat. No. 7126-B7) (human, UniProt Q9H7M9 33-194); test: Octet (BLI), antibody immobilised on biosensor, antigen in solution
T1 construct: Bought antigen; also called human VISTA-Fc; VISTA-FC Human
T1 sequence: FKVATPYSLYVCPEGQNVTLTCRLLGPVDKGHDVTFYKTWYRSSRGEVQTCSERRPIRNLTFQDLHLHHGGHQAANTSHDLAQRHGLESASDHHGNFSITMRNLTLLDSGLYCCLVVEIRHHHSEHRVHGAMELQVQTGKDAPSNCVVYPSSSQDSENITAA
Protocol: (§1) The binding ability of the screened antibody to the antigen was measured using an Octet (ForteBio). For this purpose, the antibody was immobilized on a biosensor, various concentrations of antigen were added to a 96-well plate, and then the binding ability was measured.

[2] = molecular target: T1, hVISTA-Fc (R&D systems. Cat. No. …); test: monoclonal scFv phage ELISA, plate coated with 1 ug/ml VISTA-Fc, anti-M13-HRP
Protocol: After the panning process was completed, the final round cell stock was diluted to form 200 to 500 colonies, spread on a CM agar plate, and then incubated overnight at 37° C. The next day, when the colonies grew, 200 μl of 2xYT medium (CM 34 μg/ml+1% glucose) was plated onto a 96-well deep plate, the colony was inserted into each well one by one and the plate was then incubated overnight at 37° C. and 3,000 rpm. The next day, 200 μl of 2×YT medium (CM 34 μg/ml+1% glucose) was plated onto a new 96-well dip plate, and […] of cells grown the day before were injected into each well and grown at 37° C. and 3,000 rpm for 1 hour and 10 minutes. The remaining cells were stored at −70° C. in 100 pμl of 50% glycerol. When the cells grew, 1 μl of a helper phage was mixed with 19 μl of 2×YT medium, and 20 μl of the resulting mixture was injected into each well and incubated for 30 minutes at 37° C. After incubation, centrifugation was performed at 3,000 rpm for 10 minutes. The supernatant was discarded and 200 μl of 2×YT medium (CM 34 μg/ml+Kan. 70 μg/ml+1 mM IPTG+5 mM MgCl₂) was added to the residue, followed by incubation in MegaGrow at 30° C. and 3,000 rpm overnight.
1 μg/ml of Ag (hVISTA-Fc, mVISTA-Fc) was plated at 100 μl/well onto a 96-well immunoplate and then incubated overnight at 4° C. The next day, the cells grown the day before were centrifuged at 3,000 rpm for 10 minutes and stored at 4° C. The plated Ag was washed 3 times with 0.05% PBST, and then 200 μl of 2% BSA blocking buffer was added thereto, followed by incubation at 25° C. for 2 hours. After blocking was completed, the result was washed 3 times with 0.05% PBST. […] After phage binding was completed, the reaction product was washed three times with 0.05% PBST, 100 μl of HRP-conjugated mouse anti-M13 antibody (1:3000, #GE 27-9421-01) was added thereto, and reaction was allowed to proceed at 25° C. for 1 hour. After the reaction was completed, the resulting product was washed 3 times with 0.05% PBST, 100 μl of TMB (#BD TMB substrate reagent set 555214) was added thereto, color was developed for 3 to 5 minutes, 50 μl of a stop solution was added thereto, and then an assay was performed using an ELISA reader.

[3] = molecular target: T2, mouse VISTA-Fc (mouse, UniProt Q9D659 33-191); test: Octet (BLI), antibody immobilised on biosensor, antigen in solution
T2 construct: extracellular domain; also called mVISTA-Fc; VISTA-FC Mouse; not shown: Fc portion
T2 sequence (looked up): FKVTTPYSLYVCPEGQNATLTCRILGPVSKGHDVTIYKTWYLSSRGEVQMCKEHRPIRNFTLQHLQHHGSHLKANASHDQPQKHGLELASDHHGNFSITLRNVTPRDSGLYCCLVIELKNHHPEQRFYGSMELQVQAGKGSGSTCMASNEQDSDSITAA
Protocol: as §1

[4] = molecular target: T1, hVISTA-Fc (R&D systems. Cat. No. …); test: Octet (BLI), antibody as ligand on biosensor, VISTA-Fc as analyte
Protocol: as §1
Octet was used to evaluate the binding strength of the optimized anti-VISTA antibody while excluding clones with low productivity therefrom, and the experiment was performed in the same manner as the method presented in Example 6 (Table 11).

[5] = molecular target: T1, hVISTA-Fc (R&D systems. Cat. No. …); test: dissociation rate constant of scFv in the screening of optimised clones; antigen not named

Binder | Kd [4] [nM] | koff [4] [s⁻¹] | kon [4] [M⁻¹ s⁻¹] | koff [5] [s⁻¹] | other results
B1 | – | – | – | – | Kd [1]: 5.8 nM; koff [1]: 0.000142 s⁻¹; kon [1]: 24500 M⁻¹ s⁻¹
B2 | – | – | – | – | OD [2]: 2.2 OD
B3 | – | – | – | – | OD [2]: 1.88 OD
B4 | – | – | – | – | Kd [1]: 1.02 nM; koff [1]: 8.48e-05 s⁻¹; kon [1]: 83400 M⁻¹ s⁻¹; Kd [3]: 14 nM; koff [3]: 0.00078 s⁻¹; kon [3]: 55700 M⁻¹ s⁻¹
B5 | 13.6 | 0.00209 | 154000 | – | Kd [1]: 9.29 nM; koff [1]: 0.00103 s⁻¹; kon [1]: 111000 M⁻¹ s⁻¹
B6 | 0.606 | 0.000134 | 225000 | – | –
B7 | – | – | – | 0.000732 | OD [2]: 2.13 OD
B8 | – | – | – | 0.00108 | –
B9 | – | – | – | 0.00222 | –
B10 | 0.496 | 9.38e-05 | 189000 | – | –
B11 | 2.86 | 0.00015 | 52500 | – | –
B12 | – | – | – | 0.000616 | –
B13 | – | – | – | 0.000285 | –
B14 | – | – | – | 0.00127 | –
B15 | 0.516 | 9.56e-05 | 185000 | – | –
B16 | – | – | – | 0.000487 | –
B17 | – | – | – | 0.000574 | –
B18 | 12.8 | 0.00191 | 149000 | – | –

— patent US20200407449A1 (PHARMABCINE, published 2020)
